The source of these data is patent publication US20190367608A1 (ACTICOR BIOTECH, published 2019).

The labels stand for the following.
B1: wild-type soluble GPVI-Fc (Fc fusion)
chain: QSGPLPKPSLQALPSSLVPLEKPVTLRCQGPPGVDLYRLEKLSSSRYQDQAVLFIPAMKRSLAGRYRCSYQNGSLWSLPSDQLELVATGVFAKPSLSAQPGPAVSSGGDVTLQCQTRYGFDQFALYKEGDPAPYKNPERWYRASFPIITVTAAHSGTYRCYSFSSRDPYLWSAPSDPLELVVTGTSVTPSRLPTEPPSSVAEFSEATAELTVSFTNKVFTTETSRSITTSPKESDSPAGPARQYYTKGNGGR
notes: The gene encodes the ectodomain from the first methionine to asparagine 269; also called wild-type GPVI-Fc; not shown: human IgG1 Fc domain

One assay addresses T1, Collagen.
T1 construct: Horm collagen (Nycomed) is named only for the platelet aggregation assays; The collagen used in the ELISA is not specified
Kind of assay: ELISA: collagen coated at 20 µg/mL, increasing GPVI-Fc, peroxidase-coupled anti-human Fc, absorbance at 450 nm. Here is the method:
Microtitration plates were coated with Collagen in PBS (20 μg/mL, 100 μL per well) overnight at 4° C.
Nonspecific binding sites were saturated with 200 μL of 1% BSA in PBS for 30 min. The plates were then incubated with increasing concentrations of wild-type or double mutant GPVI-Fc preparations (100 μL in PBS containing 0.1% BSA and 0.1% Tween 20) for 30 min. After 3 washing rounds plates were incubated with a peroxidase-coupled secondary human anti-Fc(ab) for 30 min. Finally, 100 μL of the substrate solution were added to each well for 4 min, and the colorimetric reaction stopped by 25 μL NaOH 3 M.
In general terms: ELISA stands for enzyme-linked immunosorbent assay.

Assay [1] deals with T2, double mutant GPVI-Fc (S125P, S126Q, G128R, Q133K, T136S, T171D, A172L, H174V) (human, UniProt Q9HCN6 21-269).
T2 construct: also called GPVI double mutant; not shown: human IgG1 Fc domain
T2 chain: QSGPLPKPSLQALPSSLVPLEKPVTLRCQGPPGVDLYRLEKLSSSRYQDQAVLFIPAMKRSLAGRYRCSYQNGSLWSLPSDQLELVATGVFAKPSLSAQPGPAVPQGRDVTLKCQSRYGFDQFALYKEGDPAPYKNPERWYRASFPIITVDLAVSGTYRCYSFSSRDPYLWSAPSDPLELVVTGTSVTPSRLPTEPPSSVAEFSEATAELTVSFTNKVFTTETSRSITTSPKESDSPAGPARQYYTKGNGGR
Briefly: ELISA: double mutant GPVI-Fc coated at 20 µg/mL, increasing ACT017, peroxidase-coupled anti-human IgG, absorbance at 450 nm. Here is the method: (§1) Microtitration plates were coated with GPVI-Fc in PBS (20 μg/mL, 100 μL per well) overnight at 4° C. Nonspecific binding sites were saturated with 200 μL of 1% BSA in PBS for 30 min. The plates were then incubated with increasing concentrations of ACT017 preparations (100 μL in PBS containing 0.1% BSA and 0.1% Tween 20) for 30 min. After 3 washing rounds plates were incubated with a peroxidase-coupled secondary human anti-IgG for 30 min. Finally, 100 μL of the substrate solution were added to each well for 4 min, and the colorimetric reaction stopped by 25 μL NaOH 3 M.

Assay [2] addresses B1. Briefly: ELISA: GPVI-Fc coated at 20 µg/mL, increasing ACT017, peroxidase-coupled anti-human IgG, absorbance at 450 nm. As to the method:
as §1

In the case of B1, in the assay with Collagen, the “EC50 (read off the curve)” value is approximately 0.6 µg/mL.

B2: ACT017 antibody (Fab, V domains shown)
VH: QVQLVQSGAEVKKPGASVKVSCKASGYTFTSYNMHWVRQAPGQGLEWMGGIYPGNGDTSYNQKFQGRVTMTRDTSTSTVYMELSSLRSEDTAVYYCARGTVVGDWYFDVWGQGTLVTVSS
VL: DIQMTQSPSSLSASVGDRVTITCRSSQSLENSNGNTYLNWYQQKPGKAPKLLIYRVSNRFSGVPSRFSGSGSGTDFTFTISSLQPEDIATYYCLQLTHVPWTFGQGTKVEITR
notes: Humanized anti-human GPVI; also called the Fab of the invention
For the molecule B2, the binding result in assay [1] is given as “no binding (tested: about 830 ng/ml)”. In addition, the “EC50 (read off the curve)” value in assay [2] was approximately 0.03 µg/mL.

In general, EC50 (read off the curve) refers to the concentration that produces a half-maximal response. A low value points to higher potency in that assay.
